Experimental data: the Immune Epitope Database (IEDB)

How the values were obtained:
HLA-B*44:02 = assay: IEDB peptide-MHC binding, purified MHC/direct/fluorescence; filed as Kd, often an IC50 or EC50 that approximates it; ≥ and ≤ were set here for values at or beyond the usual limits of such assays; conditions: source organism: Influenza A virus (A/WSN/1933(H1N1))
HLA-B*40:01 = assay: as above; conditions: source organism: Influenza A virus (A/WSN/1933(H1N1))
HLA-B*18:01 = assay: as above; conditions: source organism: Influenza A virus (A/WSN/1933(H1N1))
HLA-A*23:01 = assay: IEDB peptide-MHC binding, purified MHC/competitive/radioactivity; filed as Kd, often an IC50 or EC50 that approximates it; ≥ and ≤ were set here for values at or beyond the usual limits of such assays
HLA-A*26:01 = assay: as above
HLA-A*24:02 = assay: as above
HLA-A*30:02 = assay: as above
HLA-A*01:01 [1] = assay: as above
HLA-A*29:02 = assay: as above
HLA-B*35:01 = assay: as above
HLA-B*15:01 [2] = assay: as above
HLA-B*53:01 = assay: as above
HLA-B*58:01 = assay: IEDB peptide-MHC binding, purified MHC/direct/fluorescence; filed as Kd, often an IC50 or EC50 that approximates it; ≥ and ≤ were set here for values at or beyond the usual limits of such assays; conditions: source organism: SARS-CoV1
HLA-A*01:01 [3] = assay: as above; conditions: source organism: SARS-CoV1
HLA-B*15:01 [4] = assay: as above; conditions: source organism: SARS-CoV1
HLA-A*30:01 = assay: IEDB peptide-MHC binding, purified MHC/competitive/radioactivity; filed as Kd, often an IC50 or EC50 that approximates it; ≥ and ≤ were set here for values at or beyond the usual limits of such assays
HLA-A*32:01 = assay: as above
[5] = source organism: SARS coronavirus Tor2
[6] = source organism: Mammarenavirus lassaense
[7] = source organism: Dengue virus 4 Philippines/H241/1956
[8] = source organism: Dengue virus 1 Brazil/97-11/1997
[9] = source organism: Dengue virus 3 Martinique/1243/1999
[10] = source organism: Mammarenavirus guanaritoense
[11] = source organism: Vaccinia virus WR
[12] = source organism: Dengue virus 3 Singapore/8120/1995
[13] = source organism: Mammarenavirus brazilense
[14] = source organism: Lassa virus Josiah
[15] = source organism: Mammarenavirus whitewaterense
[16] = source organism: Mammarenavirus choriomeningitidis

AESRKLLLI
Kd (HLA-B*44:02): ≥ 53000 nM
Kd (HLA-B*40:01): 158 nM
Kd (HLA-B*18:01): ≥ 20000 nM

AFLPFTLGI
Kd (HLA-A*23:01; [5]): ≥ 45800 nM
Kd (HLA-A*26:01; [5]): ≥ 77900 nM
Kd (HLA-A*24:02; [5]): ≥ 81800 nM
Kd (HLA-A*30:02; [5]): 8040 nM
Kd (HLA-A*01:01 [1]; [5]): ≥ 78100 nM
Kd (HLA-A*29:02; [5]): 529 nM

AGFTAGLSY
Kd (HLA-A*23:01; [6]): ≥ 69900 nM
Kd (HLA-A*26:01; [6]): ≥ 77900 nM
Kd (HLA-A*24:02; [6]): ≥ 77500 nM
Kd (HLA-A*30:02; [6]): 149 nM
Kd (HLA-A*01:01 [1]; [6]): ≥ 21100 nM
Kd (HLA-A*29:02; [6]): 60.4 nM

EMCEDTVTY
Kd (HLA-A*26:01; [7]): 3900 nM
Kd (HLA-A*30:02; [7]): 14300 nM
Kd (HLA-B*35:01; [7]): 681 nM
Kd (HLA-B*15:01 [2]; [7]): 28.3 nM

EPEVANLDII
Kd (HLA-B*53:01; [8]): 8450 nM

EPGVVSPTSY
Kd (HLA-B*53:01; [9]): 313 nM
Kd (HLA-B*35:01; [9]): 592 nM

EPVPMSTYGW
Kd (HLA-B*53:01; [9]): 158 nM

FFGALKFKI
Kd (HLA-A*23:01; [10]): 207 nM
Kd (HLA-A*24:02; [10]): 2150 nM
Kd (HLA-A*29:02; [10]): 20.3 nM

FTERSDKSY
Kd (HLA-A*23:01; [5]): ≥ 77800 nM
Kd (HLA-A*26:01; [5]): 6230 nM
Kd (HLA-A*24:02; [5]): ≥ 77600 nM
Kd (HLA-A*30:02; [5]): 53.5 nM
Kd (HLA-A*29:02; [5]): 68.5 nM
Kd (HLA-B*58:01): 2800 nM
Kd (HLA-A*01:01 [3]): 65 nM
Kd (HLA-B*15:01 [4]): 497 nM

FTPEAKNSTF
Kd (HLA-A*26:01; [7]): 653 nM
Kd (HLA-A*24:02; [7]): 3020 nM

GMYCRCSHG
Kd (HLA-B*15:01 [2]; [11]): 216 nM

GQTGIQRTVF
Kd (HLA-B*15:01 [2]; [7]): 5.95 nM

HMIAGVLFTF
Kd (HLA-A*26:01; [12]): 1160 nM
Kd (HLA-A*24:02; [12]): 431 nM
Kd (HLA-B*15:01 [2]; [12]): 2.03 nM

HSIKRNYPY
Kd (HLA-A*30:01; [13]): 141 nM
Kd (HLA-A*26:01; [13]): 660 nM
Kd (HLA-A*30:02; [13]): 42.3 nM
Kd (HLA-A*32:01; [13]): 1720 nM
Kd (HLA-A*01:01 [1]; [13]): 53 nM
Kd (HLA-A*29:02; [13]): 262 nM

HYVRITGLY
Kd (HLA-A*23:01; [5]): 7530 nM
Kd (HLA-A*26:01; [5]): 149 nM
Kd (HLA-A*24:02; [5]): ≥ 22700 nM
Kd (HLA-A*30:02; [5]): ≥ 27600 nM
Kd (HLA-A*01:01 [1]; [5]): 18200 nM
Kd (HLA-A*29:02; [5]): 111 nM

ILGAQALPVY
Kd (HLA-A*30:02; [7]): 80.8 nM
Kd (HLA-A*01:01 [1]; [7]): ≥ 70400 nM
Kd (HLA-B*15:01 [2]; [7]): 4.87 nM

ILKKLSPYF
Kd (HLA-B*15:01 [2]; [11]): 1.18 nM

IMMLKLLTEF
Kd (HLA-A*24:02; [8]): 309 nM
Kd (HLA-B*15:01 [2]; [8]): 6.24 nM

ITEMLQKEY
Kd (HLA-A*30:01; [14]): 4750 nM
Kd (HLA-A*26:01; [14]): ≥ 77900 nM
Kd (HLA-A*30:02; [14]): 172 nM
Kd (HLA-A*32:01; [14]): ≥ 77800 nM
Kd (HLA-A*01:01 [1]; [14]): 18.8 nM
Kd (HLA-A*29:02; [14]): 7650 nM

IYNEKVAGF
Kd (HLA-A*23:01; [5]): 19700 nM
Kd (HLA-A*26:01; [5]): 3550 nM
Kd (HLA-A*24:02; [5]): ≥ 26600 nM
Kd (HLA-A*30:02; [5]): ≥ 22700 nM
Kd (HLA-A*01:01 [1]; [5]): ≥ 78100 nM
Kd (HLA-A*29:02; [5]): 19800 nM

KFWYVNHTGF
Kd (HLA-A*23:01; [15]): 80.9 nM
Kd (HLA-A*24:02; [15]): 604 nM
Kd (HLA-A*29:02; [15]): 341 nM

KQSNTNKHM
Kd (HLA-B*15:01 [2]; [11]): 27.8 nM

KTFFWFNEV
Kd (HLA-A*30:01; [13]): 93.2 nM
Kd (HLA-A*26:01; [13]): 12500 nM
Kd (HLA-A*30:02; [13]): 59.2 nM
Kd (HLA-A*32:01; [13]): 7.26 nM
Kd (HLA-A*01:01 [1]; [13]): 11500 nM
Kd (HLA-A*29:02; [13]): 18600 nM

KTGESSRSY
Kd (HLA-A*30:01; [16]): 1090 nM
Kd (HLA-A*26:01; [16]): ≥ 77900 nM
Kd (HLA-A*30:02; [16]): 63.3 nM
Kd (HLA-A*32:01; [16]): 14300 nM
Kd (HLA-A*01:01 [1]; [16]): 3660 nM
Kd (HLA-A*29:02; [16]): 16700 nM

LFCLLNRYF
Kd (HLA-A*23:01; [5]): ≥ 70000 nM
Kd (HLA-A*26:01; [5]): 1140 nM
Kd (HLA-A*24:02; [5]): ≥ 77600 nM
Kd (HLA-A*30:02; [5]): ≥ 81100 nM
Kd (HLA-A*01:01 [1]; [5]): 3440 nM
Kd (HLA-A*29:02; [5]): ≥ 40400 nM

LFFFVYENAF
Kd (HLA-A*23:01; [5]): 58.8 nM
Kd (HLA-A*26:01; [5]): 14500 nM
Kd (HLA-A*24:02; [5]): 185 nM
Kd (HLA-A*30:02; [5]): ≥ 51100 nM
Kd (HLA-A*01:01 [1]; [5]): 9720 nM
Kd (HLA-A*29:02; [5]): 107 nM
